These are literature values, as cited in publication PMC4194041.

The target in this data set is AP180 fragment with two D(L/I)(L/F) motifs (UniProt Q61548). Briefly: NMR.
UniProt Q61548, sequence (Q61548 623-680): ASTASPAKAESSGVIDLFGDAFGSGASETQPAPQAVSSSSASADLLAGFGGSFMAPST

For the substance “Clathrin heavy chain TD (from UniProt P11442)”, the Kd is 250 µM.
